Test results: patent US7226791B2, “Polynucleotides encoding novel guanylate binding proteins (GBP's)” (Bristol-Myers Squibb Company, priority 2003, dated 2007)

B1: FLJ10961: human guanylate binding protein HGBPBMY4, AA SEQ ID NO:9 (protein, listed as Homo sapiens)
chain: MAPEIHMTGPMCLIENTNGELVANPEALKILSAITQPVVVVAIVGLYRTGKSYLMNKLAGKNKGFSLGSTVKSHTKGIWMWCVPHPKKPEHTLVLLDTEGLGDVKKGDNQNDSWIFTLAVLLSSTLVYNSMGTINQQAMDQLYYVTELTHRIRSKSSPDENENEDSADFVSFFPDFVWTLRDFSLDLEADGQPLTPDEYLEYSLKLTQGNRKLAQLEKLQDEELDPEFVQQVADFCSYIFSNSKTKTLSGGIKVNGPCLESLVLTYINAISRGDLPCMENAVLALAQIENSAAVQKAIAHYDQQMGQKVQLPAETLQELLDLHRVSEREATEVYMKNSFKDVDHLFQKKLAAQLDKKRDDFCKQNQEASSDRCSALLQVIFSPLEEEVKAGIYSKPGGYCLFIQKLQDLEKKYYEEPRKGIQAEEILQTYLKSKESVTDAILQTDQILTEKEKEIEVECVKAESAQASAKMVEEMQIKYQQMMEEKEKSYQEHVKQLTEKMERERAQLLEEQEKTLTSKLQEQARVLKERCQGESTQLQNEIQKLQKTLKKKTKRYMSHKLKI
B2: AK096141: human guanylate binding protein HGBPBMY1, AA SEQ ID NO:3 (protein, listed as Homo sapiens)
chain: MASEIHMPGPVCLIENTKGHLVVNSEALEILSAITQPVVVVAIVGLYRTGKSYLMNKLAGKNKGFPLGCTVKSETKGIWMWCVPHPSKPNHTLILLDTEGLGDMEKSDPKSDSWIFALAVLLSSSFVYNSMGTINHQALEQLHYVTELTELIRAKSCPRPDEVEDSSEFVSFFPDFIWTVRDFTLELKLDGHPITEDEYLENALKLISGKNPQIQNSNKPREWIRHFFPKQKCFVFDRPINDKKLLLHVEEVREDQLDSNFQMQSENFCSYIFTHAKTKTLREGILVTGNRLGMLVETYLDAINSGATPCLENAMAVLAQCENSAAVQRAANHYSQQMAQQVRFPTDTLQELLDVHAVCEREAIAVFMEYSFKDKSQEFQKKLVDTMEKKKEDFVLQNEEASAKYCQAELKRLSELLTESISRGTFFVPGGHNIYLEAKKKIEQDYTLVPRKGVKADEVLQSFLQSQVVIEESILQSDKALTAGEKAIAAKQAKKEAAEKEQELLRQKQKEQQQMMEAQERSFQENIAQLKKKMERERENYMRELRKMLSHKMKVLEELLTEGFKEIFESLNEEINRLKEQIEAAENEEPSVFSQILDVAGSIFIAALPGAAKLVDLGMKILSSLCNRLRNPGKKIIS
B3: GBP-5: known guanylate binding protein family member, myc-tagged, expressed in Cos-7 cells (protein, UniProt Q96PP8 1-583, looked up)
Guanylate-binding protein 5: MALEIHMSDPMCLIENFNEQLKVNQEALEILSAITQPVVVVAIVGLYRTGKSYLMNKLAGKNKGFSVASTVQSHTKGIWIWCVPHPNWPNHTLVLLDTEGLGDVEKADNKNDIQIFALALLLSSTFVYNTVNKIDQGAIDLLHNVTELTDLLKARNSPDLDRVEDPADSASFFPDLVWTLRDFCLGLEIDGQLVTPDEYLENSLRPKQGSDQRVQNFNLPRLCIQKFFPKKKCFIFDLPAHQKKLAQLETLPDDELEPEFVQQVTEFCSYIFSHSMTKTLPGGIMVNGSRLKNLVLTYVNAISSGDLPCIENAVLALAQRENSAAVQKAIAHYDQQMGQKVQLPMETLQELLDLHRTSEREAIEVFMKNSFKDVDQSFQKELETLLDAKQNDICKRNLEASSDYCSALLKDIFGPLEEAVKQGIYSKPGGHNLFIQKTEELKAKYYREPRKGIQAEEVLQKYLKSKESVSHAILQTDQALTETEKKKKEAQVKAEAEKAEAQRLAAIQRQNEQMMQERERLHQEQVRQMEIAKQNWLAEQQKMQEQQMQEQAAQLSTTFQAQNRSLLSELQHAQRTVNNDDPC
modifications: myc tag
B4: GBP-1: known guanylate binding protein family member, myc-tagged, expressed in Cos-7 cells (protein, UniProt P32455 1-589, looked up)
Guanylate-binding protein 1: MASEIHMTGPMCLIENTNGRLMANPEALKILSAITQPMVVVAIVGLYRTGKSYLMNKLAGKKKGFSLGSTVQSHTKGIWMWCVPHPKKPGHILVLLDTEGLGDVEKGDNQNDSWIFALAVLLSSTFVYNSIGTINQQAMDQLYYVTELTHRIRSKSSPDENENEVEDSADFVSFFPDFVWTLRDFSLDLEADGQPLTPDEYLTYSLKLKKGTSQKDETFNLPRLCIRKFFPKKKCFVFDRPVHRRKLAQLEKLQDEELDPEFVQQVADFCSYIFSNSKTKTLSGGIQVNGPRLESLVLTYVNAISSGDLPCMENAVLALAQIENSAAVQKAIAHYEQQMGQKVQLPTETLQELLDLHRDSEREAIEVFIRSSFKDVDHLFQKELAAQLEKKRDDFCKQNQEASSDRCSALLQVIFSPLEEEVKAGIYSKPGGYRLFVQKLQDLKKKYYEEPRKGIQAEEILQTYLKSKESMTDAILQTDQTLTEKEKEIEVERVKAESAQASAKMLQEMQRKNEQMMEQKERSYQEHLKQLTEKMENDRVQLLKEQERTLALKLQEQEQLLKEGFQKESRIMKNEIQDLQTKMRRRKAC
modifications: myc tag
B5: GBP-2: known guanylate binding protein family member, myc-tagged, expressed in Cos-7 cells (protein, UniProt P32456 1-588, looked up)
Guanylate-binding protein 2: MAPEINLPGPMSLIDNTKGQLVVNPEALKILSAITQPVVVVAIVGLYRTGKSYLMNKLAGKKNGFSLGSTVKSHTKGIWMWCVPHPKKPEHTLVLLDTEGLGDIEKGDNENDSWIFALAILLSSTFVYNSMGTINQQAMDQLHYVTELTDRIKANSSPGNNSVDDSADFVSFFPAFVWTLRDFTLELEVDGEPITADDYLELSLKLRKGTDKKSKSFNDPRLCIRKFFPKRKCFVFDWPAPKKYLAHLEQLKEEELNPDFIEQVAEFCSYILSHSNVKTLSGGIPVNGPRLESLVLTYVNAISSGDLPCMENAVLALAQIENSAAVEKAIAHYEQQMGQKVQLPTETLQELLDLHRDSEREAIEVFMKNSFKDVDQMFQRKLGAQLEARRDDFCKQNSKASSDCCMALLQDIFGPLEEDVKQGTFSKPGGYRLFTQKLQELKNKYYQVPRKGIQAKEVLKKYLESKEDVADALLQTDQSLSEKEKAIEVERIKAESAEAAKKMLEEIQKKNEEMMEQKEKSYQEHVKQLTEKMERDRAQLMAEQEKTLALKLQEQERLLKEGFENESKRLQKDIWDIQMRSKSLEPIC
modifications: myc tag
B6: 4843—1: human guanylate binding protein HGBPBMY2, AA SEQ ID NO:5 (protein, listed as Homo sapiens)
chain: MESGPKMLAPVCLVENNNEQLLVNQQAIQILEKISQPVVVAIVGLYRTGKSYLMNHLAGQNHGFPLGSTVQSETKGIWMWCVPHPSKPNHTLVLLDTEGLGDVEKGDPKNDSWIFALAVLLCSTFVYNSMSTINHQALEQLHYVTELTELIKAKSSPRPDGVEDSTEFVSFFPDFLWTVRDFTLELKLNGHPITEDEYLENALKLIQGNNPRVQTSNFPRECIRRFLPKRKCFVFDRPTNDKDLLANIEKVSEKQLDPKFQEQTNIFCSYIFTHARTKTLREGITVTGNRLGTLAVTYVEAINSGAVPCLENAVITLAQRENSAAVQRASDYYSQQMAQRVKFPTDTLQELLDVHAACEREAIAIFMEHSFKDENQEFQKKFMETTMNKKGDFLLQNEESSVQYCQAKLNELSKGLMESISAGSFSVPGGHKLYMETKERIEQDYWQVPRKGVKAKEVFQRFLESQMVIEESILQSDKALTDREKAVAVDRAKKEAAEKEQELLKQKLQEQQQQMEAQVKSRKENIAQLKEKLQMEREHLLREQIMMLEHTQKVQNDWLHEGFKKKYEEMNAEISQFKRMIDTTKNDDTPWIARTLDNLADELTAILSAPAKLIGHGVKGVSSLFKKHKLPFKGGRADPAFLYKVVDLEGPRFEQKLISEEDLNMHTGHHHHHH

How the values were obtained:
GBP-1 = assay: siRNA knockdown of GBP-1 protein expression in Cos-7 cells, myc western blot; format: cell-based; settings: Cos-7 cells co-transfected with GBP-1 expression vector, 40 nM siRNA duplex; FIG. 50A
Method: (§1) To test for knockdown of protein expression using siRNAs, Cos-7 cells were transfected as described herein with expression vectors encoding either GBP-1 or GBP-2 in the presence and absence of 40 nM siRNA duplex specific for either GBP-1 (“1–3”, […], (SEQ ID NO:79), Qiagen, Inc.) or GBP-2 (“582”, […] (SEQ ID NO:80), Sequitur Inc., Natick, Mass.). Approximately 18 hours following transfection, cells were harvested using trypsin, and lysed in RIPA buffer as described previously. Lysates were electrophoresed through 4–20% tris-glycine gels, transferred to nitrocellulose, blocked overnight with 5% non-fat dry milk and 0.3% BSA in Tris-buffered saline, and probed with a mouse monoclonal antibody specific for the myc epitope tag.

MCP-1 = assay: TNFα-induced MCP-1 expression in human umbilical vein endothelial cells, ELISA; format: cell-based; settings: HUVECs, 100 nM siRNA duplexes, 6 hours 10 ng/ml TNFα; FIG. 50B
Method: (§2) In some experiments, human umbilical vein endothelial cells (HUVECs, Clonetics Corp., San Diego, Calif., USA) were transfected using lipofectamine 2000 with 100 nM siRNA duplexes. Cells were cultured overnight, and then stimulated for 6 hours with 10 ng/ml TNFα. Supernatants were analyzed for MCP-1 and IL-8 levels by ELISA (Pharmingen, San Diego, Calif., USA). Cytokine levels were corrected for cell number using the CELL TITER kit (Promega).

IL-8 = assay: TNFα-induced IL-8 secretion in human umbilical vein endothelial cells, ELISA; format: cell-based; settings: HUVECs, 100 nM siRNA duplexes, 6 hours 10 ng/ml TNFα
Method: as §2

GBP-2 = assay: siRNA knockdown of GBP-2 protein expression in Cos-7 cells, myc western blot; format: cell-based; settings: Cos-7 cells co-transfected with GBP-2 expression vector, 40 nM siRNA duplex; FIG. 50A
Method: as §1

[1] = Guanine nucleotide binding: Cos-7 lysates on agarose coated with GTP, myc western blot; settings: myc-tagged protein expressed in Cos-7 cells; FIG. 49
Method: (§3) Genes encoding different GBP family members were cloned into the vector pcDNA3.1mychis (Invitrogen) for expression in mammalian cells. Cos-7 cells were transfected with 5 μg of DNA per group using lipofectamine 2000 (Invitrogen) according to manufacturer's instructions. Approximately 18 hours after transfection, the cells were harvested using trypsin and lysed in RIPA buffer (10 mM sodium phosphate pH 7.2, 0.25 M sodium chloride, 0.1% SDS, 1% NP40, 1% sodium deoxycholate, 2 mM EDTA, protease inhibitor cocktail). An aliquot of the lysate was reserved for the whole cell lysate sample. The remainder was divided in thirds, and incubated for three hours at 4° C. with agarose coated with either GTP, GDP, or GMP (Sigma Chemical Company). The beads were pelleted, washed with buffer (0.1% NP40, 150 mM NaCl, 50 mM Tris pH7.5), and resuspended in SDS sample buffer. Samples were electrophoresed through 4–20% tris-glycine gels, transferred to nitrocellulose, blocked overnight with 5% non-fat dry milk and 0.3% BSA in Tris-buffered saline, and probed with a mouse monoclonal antibody specific for the myc epitope tag (Invitrogen).

[2] = Guanine nucleotide binding: Cos-7 lysates on agarose coated with GDP, myc western blot; settings: myc-tagged protein expressed in Cos-7 cells; FIG. 49
Method: as §3

[3] = Guanine nucleotide binding: Cos-7 lysates on agarose coated with GMP, myc western blot; settings: myc-tagged protein expressed in Cos-7 cells; FIG. 49
Method: as §3

Molecule	knockdown of GBP-1 protein expression (GBP-1)	inhibition of TNFα-induced MCP-1 expression (MCP-1)	inhibition of IL-8 secretion (IL-8)	knockdown of GBP-2 protein expression (GBP-2)	binding to GTP agarose beads [1]	binding to GDP agarose beads [2]	binding to GMP agarose beads [3]
GCUCGAGAAACUACAAGAUTT, (SEQ ID NO:79) [1–3]	specific knockdown	70%	failed to inhibit				
UUUGUAUUUCCUCCAACAUTT (SEQ ID NO:80) (chemistry not given here; listed as Homo sapiens) [Compound 582]		approximately 40%	failed to inhibit	specific knockdown			
B1					weakly	bound well	bound well
B2					not at all	bound weakly	bound weakly
B3					weakly	bound well	bound well
B4					bound well	bound well	bound well
B5					bound well	bound well	bound well
B6					did not bind	did not bind	did not bind
